Patent EP4778941A1 (Jiangsu Hengrui Pharmaceuticals Co., Ltd., dated 2025)
Substitutions are numbered along the chain they refer to. Names and notes keep the numbering of the source. Where two headings read alike, the source gives them in different places. One block for each binder: values may come before it.

Legend:
[1] = molecular target: T1, Human MET protein on the cell surface (human, UniProt P08581 25-1390); test: cell-based or functional assay
[2] = molecular target: T2, Human HER3 protein on the cell surface (human, UniProt P21860 20-1342); test: FACS on MDA-MB-453 cells (HER3 single-positive)
T2 construct: whole, on cells; also called HER3 single-positive cells (MDA-MB-453)

[3] = molecular target: T2, Human HER3 protein on the cell surface; test: cell-based or functional assay
[4] = molecular target: T2, Human HER3 protein on the cell surface; test: FACS on HCC827 Osimertinib-resistant cells (HER3/MET double-positive)
[5] = molecular target: T1, Human MET protein on the cell surface; test: FACS on NCI-H1703 cells (MET single-positive)
[6] = molecular target: T2, Human HER3 protein on the cell surface; test: cell-based or functional assay; remark: listed apart in the source
[7] = molecular target: T3, His-tagged human HER3 antigen (human, UniProt P21860 20-643); test: SPR, Biacore 8K; antibody captured, His-tagged human HER3 antigen 6.25-400 nM as analyte; 1:1 Langmuir
T3 construct: Soluble antigen used as analyte in SPR; not shown: His tag

[8] = molecular target: T2, Human HER3 protein on the cell surface; test: cell-based or functional assay; remark: listed apart in the source
[9] = molecular target: T1, Human MET protein on the cell surface; test: FACS on NCI-H1975 cells (MET single-positive), FIG. 3
[10] = molecular target: T4, Human HER3 and MET proteins together on HER3/MET double-positive cells (human, UniProt P21860 20-1342; P08581 25-1390); test: cell-based or functional assay
[11] = molecular target: T4, Human HER3 and MET proteins together on …; test: cell-based or functional assay; remark: listed apart in the source
[12] = molecular target: T4, Human HER3 and MET proteins together on …; test: FACS on HCC827 Osimertinib-resistant cells (HER3/MET double-positive)
[13] = molecular target: T4, Human HER3 and MET proteins together on …; test: cell-based or functional assay; remark: listed apart in the source
[14] = molecular target: T3, His-tagged human HER3 antigen; test: SPR, Biacore 8K, protein A chip; ADC captured, His-tagged antigen 6.25-400 nM as analyte; 1:1 Langmuir
[15] = molecular target: T5, His-tagged human MET antigen (human, UniProt P08581 25-932); test: as above
T5 construct: Soluble antigen used as analyte in SPR; not shown: His tag
T5 sequence (P08581 25-932 limits assumed): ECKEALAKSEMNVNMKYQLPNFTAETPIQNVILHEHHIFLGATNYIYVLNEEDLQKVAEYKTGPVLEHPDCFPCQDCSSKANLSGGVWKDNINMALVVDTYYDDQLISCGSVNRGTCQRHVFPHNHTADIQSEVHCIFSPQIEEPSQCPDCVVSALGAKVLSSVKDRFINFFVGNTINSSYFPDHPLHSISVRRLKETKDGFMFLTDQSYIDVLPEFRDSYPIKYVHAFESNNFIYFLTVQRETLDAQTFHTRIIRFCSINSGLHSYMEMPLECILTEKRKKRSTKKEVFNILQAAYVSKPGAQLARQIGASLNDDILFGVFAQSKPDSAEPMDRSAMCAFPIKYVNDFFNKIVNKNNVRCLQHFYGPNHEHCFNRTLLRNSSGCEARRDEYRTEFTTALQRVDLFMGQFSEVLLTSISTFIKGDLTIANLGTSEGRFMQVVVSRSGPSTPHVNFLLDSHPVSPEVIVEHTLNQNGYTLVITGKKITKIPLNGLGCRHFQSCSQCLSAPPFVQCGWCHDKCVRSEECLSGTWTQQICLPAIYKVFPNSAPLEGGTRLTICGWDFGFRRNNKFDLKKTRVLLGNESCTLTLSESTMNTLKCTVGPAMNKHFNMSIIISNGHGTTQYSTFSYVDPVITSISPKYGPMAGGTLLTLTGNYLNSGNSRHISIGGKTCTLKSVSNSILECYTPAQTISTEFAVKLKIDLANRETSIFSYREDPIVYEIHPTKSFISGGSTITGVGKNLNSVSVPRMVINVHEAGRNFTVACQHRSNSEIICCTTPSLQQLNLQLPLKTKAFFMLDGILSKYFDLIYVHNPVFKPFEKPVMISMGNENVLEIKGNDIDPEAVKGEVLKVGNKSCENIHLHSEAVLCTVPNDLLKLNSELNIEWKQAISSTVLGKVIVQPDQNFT

[16] = molecular target: T3, His-tagged human HER3 antigen; test: as above; remark: listed apart in the source

T1 sequence (P08581 25-1390): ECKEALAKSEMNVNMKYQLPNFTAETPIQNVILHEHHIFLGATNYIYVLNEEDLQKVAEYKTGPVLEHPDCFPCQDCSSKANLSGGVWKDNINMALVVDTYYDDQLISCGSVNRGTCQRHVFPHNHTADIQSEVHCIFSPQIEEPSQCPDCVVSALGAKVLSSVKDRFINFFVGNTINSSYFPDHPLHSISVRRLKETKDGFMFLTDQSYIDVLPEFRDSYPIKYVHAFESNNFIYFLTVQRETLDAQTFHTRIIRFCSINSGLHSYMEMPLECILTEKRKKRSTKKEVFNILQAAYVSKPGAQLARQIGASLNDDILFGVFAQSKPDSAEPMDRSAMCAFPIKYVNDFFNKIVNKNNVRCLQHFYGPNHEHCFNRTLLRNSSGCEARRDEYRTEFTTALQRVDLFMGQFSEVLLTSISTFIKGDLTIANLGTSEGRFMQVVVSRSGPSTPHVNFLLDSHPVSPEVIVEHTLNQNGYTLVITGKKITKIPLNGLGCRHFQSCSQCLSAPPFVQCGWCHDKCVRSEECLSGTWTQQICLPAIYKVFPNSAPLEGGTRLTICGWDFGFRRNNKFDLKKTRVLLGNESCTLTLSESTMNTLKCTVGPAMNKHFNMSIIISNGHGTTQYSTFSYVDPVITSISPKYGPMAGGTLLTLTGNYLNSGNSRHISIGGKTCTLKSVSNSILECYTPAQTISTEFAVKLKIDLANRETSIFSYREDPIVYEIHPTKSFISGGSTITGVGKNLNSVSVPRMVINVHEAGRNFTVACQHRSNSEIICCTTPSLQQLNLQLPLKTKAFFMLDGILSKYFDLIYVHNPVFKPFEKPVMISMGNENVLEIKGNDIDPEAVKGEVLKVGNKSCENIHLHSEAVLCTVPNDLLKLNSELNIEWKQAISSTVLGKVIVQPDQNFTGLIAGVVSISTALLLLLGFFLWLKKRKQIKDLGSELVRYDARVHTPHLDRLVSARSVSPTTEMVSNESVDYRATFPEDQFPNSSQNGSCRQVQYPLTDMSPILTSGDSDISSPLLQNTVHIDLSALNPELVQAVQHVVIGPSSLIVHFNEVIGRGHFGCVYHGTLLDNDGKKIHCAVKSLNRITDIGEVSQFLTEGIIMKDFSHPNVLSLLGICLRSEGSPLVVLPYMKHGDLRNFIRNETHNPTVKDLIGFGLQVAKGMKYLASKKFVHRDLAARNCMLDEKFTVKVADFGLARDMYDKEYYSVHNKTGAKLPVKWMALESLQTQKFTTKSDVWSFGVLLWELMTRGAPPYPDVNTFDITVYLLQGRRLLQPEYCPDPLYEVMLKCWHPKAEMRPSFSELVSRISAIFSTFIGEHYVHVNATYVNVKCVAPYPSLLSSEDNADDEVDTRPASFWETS

B1: Naked antibody of the control antibody U3-1402 (U3-1402 Ab) (antibody, human IgG1, kappa, V domains shown)
VH: QVQLQQWGAGLLKPSETLSLTCAVYGGSFSGYYWSWIRQPPGKGLEWIGEINHSGSTNYNPSLKSRVTISVETSKNQFSLKLSSVTAADTAVYYCARDKWTWYFDLWGRGTLVTVSS
VL: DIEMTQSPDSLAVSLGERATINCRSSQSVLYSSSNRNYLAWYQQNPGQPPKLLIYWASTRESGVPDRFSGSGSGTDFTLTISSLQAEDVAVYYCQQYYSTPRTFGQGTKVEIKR
notes: Anti-HER3 control
- Minimum cell viability (%) [1]: 72.9%
- EC50 [2]: 0.25 nM
- Maximum fluorescence value [2]: 1990
- Minimum cell viability (%) [3]: 73.6%
- EC50 [4]: 0.46 nM
- Maximum fluorescence value [4]: 1240
- Maximum fluorescence value [5]: 90
- Minimum cell viability (%) [6]: 63.9%

B6: Anti-HER3/MET antibody-drug conjugate ADC-2 (bispecific antibody, human IgG1, kappa)
heavy 1: not shown
light 1: DIVLTQSPDSLAVSLGERATINCRADKSVSTSTYNYLHWYQQKPGQPPKLLIYLASNLASGVPDRFSGSGSGTDFTLTISSLQAEDVAVYYCQHSRDLPPTFGQGTKLEIKGGGGSGIPPKIECLPIDISIDEGKVLTVASAFTGEPTPEVTWSTGGRKIHSQEQGRFHIENTDDSTTLTIKDVQKQDGGLYTLTLRNEFGSDSATVNIHIRSI
heavy 2: QVQLVQSGGGLVQPGRSLRLSCAASGFTFDDYAMHWVRQAPGKGLEWVSGISWNSGSIGYADSVKGRFTISRDNAKNSLYLQMNSLRAEDTALYYCAKEGLPGLDYWGQGTLVTVSSASTKGPSVFPLAPSSKSTSGGTAALGCLVKDYFPEPVTVSWNSGALTSGVHTFPAVLQSSGLYSLSSVVTVPSSSLGTQTYICNVNHKPSNTKVDKKVEPKSCDKTHTCPPCPAPELLGGPSVFLFPPKPKDTLMISRTPEVTCVVVDVSHEDPEVKFNWYVDGVEVHNAKTKPREEQYNSTYRVVSVLTVLHQDWLNGKEYKCKVSNKALPAPIEKTISKAKGQPREPQVCTLPPSREEMTKNQVSLSCAVKGFYPSDIAVEWESNGQPENNYKTTPPVLDSDGSFFLVSKLTVDKSRWQQGNVFSCSVMHEALHNHYTQKSLSLSPGK
light 2: DIQMTQSPSSLSASIGDRATITCRASQHVGTYLNWYQQKPGKTPKLLISGAANLQSGVPSRFSGSGSGTDFTLTISSLQPEDFATYYCQQSYNTPPFSFGQGTKVEIKRTVAAPSVFIFPPSDEQLKSGTASVVCLLNNFYPREAKVQWKVDNALQSGNSQESVTEQDSKDSTYSLSSTLTLSKADYEKHKVYACEVTHQGLSSPVTKSFNRGEC
modifications: compound 9-A on reduced cysteines, positions not given; compound 9-A (exatecan derivative linker-drug) on reduced cysteines, positions not given; target DAR 6 for the whole molecule
notes: target DAR 6; distribution of the drug over the chains not reported for ADC-2
- Kd [14]: 19.7 nM
- koff [14]: 0.0108 s⁻¹
- kon [14]: 546000 M⁻¹ s⁻¹

B7: Anti-HER3/MET bispecific antibody A9-A (bispecific antibody, human IgG1, kappa)
heavy 1: not shown
light 1: EIVLTQSPGTLSLSPGERATLSCRASQSVSNNYLAWYQQKPGQAPRLLIFGASSRATGIPDRFSGSGSGTDFTLTISRLEPEDFAVYYCQQYDISPMYSFGQGTKLEMKGGGGSGIPPKIECLPIDISIDEGKVLTVASAFTGEPTPEVTWSTGGRKIHSQEQGRFHIENTDDSTTLTIKDVQKQDGGLYTLTLRNEFGSDSATVNIHIRSI
heavy 2: B6 heavy 2
light 2: B6 light 2
- binding result [9]: binds
- Minimum cell viability (%) [10]: 15.9%

B8: Anti-HER3/MET antibody-drug conjugate ADC-5 (bispecific antibody, human IgG1, kappa)
heavy 1: not shown
light 1: DIQMTQSPSSVSASVGDRVTITCRASQGISTWLAWYQQKPGKAPKLLIYAASSLKSGVPSRFSGSGSGTDFTLTISSLQPEDFATYYCQQANSFPLTFGGGTKVEIKGGGGSGIPPKIECLPIDISIDEGKVLTVASAFTGEPTPEVTWSTGGRKIHSQEQGRFHIENTDDSTTLTIKDVQKQDGGLYTLTLRNEFGSDSATVNIHIRSI
heavy 2: B6 heavy 2
light 2: B6 light 2 with T94V
modifications: compound 9-A on reduced cysteines, positions not given; compound 9-A (exatecan derivative linker-drug) on reduced cysteines, positions not given; average DAR 5.87 for the whole molecule
- Kd [15]: 13.1 nM
- koff [15]: 0.000872 s⁻¹
- kon [15]: 66500 M⁻¹ s⁻¹
- Kd [16]: 14.3 nM
- koff [16]: 0.00721 s⁻¹
- kon [16]: 505000 M⁻¹ s⁻¹

Further lines, with some results ahead:

- EC50 [2]: 0.48 nM
- Maximum fluorescence value [2]: 1860
- EC50 [4]: 2.06 nM
- Maximum fluorescence value [4]: 1020
- Maximum fluorescence value [5]: 81
- Kd [7]: 14.5 nM
- koff [7]: 0.0103 s⁻¹
- kon [7]: 707000 M⁻¹ s⁻¹
- Endocytosis ratio at 0 h (FACS) [8]: 0%
- Endocytosis ratio at 0.5 h (FACS) [8]: 55.5%
- Endocytosis ratio at 2 h (FACS) [8]: 80%
- Endocytosis ratio at 6 h (FACS) [8]: 82.2%
B2: Anti-HER3 antibody A (antibody, human IgG1, kappa, V domains shown)
VH: QVQLVQSGGGLVQPGRSLRLSCAASGFTFDDYAMHWVRQAPGKGLEWVSGISWNSGSIGYADSVKGRFTISRDNAKNSLYLQMNSLRAEDTALYYCAKEGLPGLDYWGQGTLVTVSS
VL: DIQMTQSPSSLSASIGDRATITCRASQHVGTYLNWYQQKPGKTPKLLISGAANLQSGVPSRFSGSGSGTDFTLTISSLQPEDFATYYCQQSYNTPPFSFGQGTKVEIKR
- Minimum cell viability (%) [1]: 77.8%
- Minimum cell viability (%) [3]: 63.8%
- Minimum cell viability (%) [6]: 28.5%

- binding result [9]: binds
B3: Anti-HER3/MET bispecific antibody P3-A (bispecific antibody, human IgG1, kappa)
heavy 1: not shown
light 1: QAVLTQPSSVSGAPGQRVTISCTGSSSNIGAGYDVHWYQQLPGTAPKLLIYGNSNRPSGVPDRFSGSKSGTSASLAITGLQAEDEADYYCQSYDSSLSGVFGTGTQLTVLGGGGSGIPPKIECLPIDISIDEGKVLTVASAFTGEPTPEVTWSTGGRKIHSQEQGRFHIENTDDSTTLTIKDVQKQDGGLYTLTLRNEFGSDSATVNIHIRSI
heavy 2: B6 heavy 2
light 2: B6 light 2
- Minimum cell viability (%) [10]: 16.4%

- EC50 [2]: 2.72 nM
- Maximum fluorescence value [2]: 1950
- EC50 [12]: 0.52 nM
- Maximum fluorescence value [12]: 2470
- EC50 [5]: 1.03 nM
- Maximum fluorescence value [5]: 2430
- Endocytosis ratio at 0 h (FACS) [13]: 0%
- Endocytosis ratio at 0.5 h (FACS) [13]: 67.9%
- Endocytosis ratio at 2 h (FACS) [13]: 83.2%
- Endocytosis ratio at 6 h (FACS) [13]: 84.1%
B4: Anti-HER3/MET bispecific antibody 2232-01 (A13-A) (bispecific antibody, human IgG1, kappa)
heavy 1: not shown
light 1: B8 light 1 with S30N, T69A
heavy 2: B6 heavy 2
light 2: B6 light 2
notes: Four chains: H1 = A13 VH-GGGGS-Obscurin-O chain-IgG1 Fc1 (S354C/T366W); L1 = A13 VL-GGGGS-Titin-T chain; H2 = antibody A VH-CH1-IgG1 Fc2 (Y349C/T366S/L368A/Y407V); L2 = antibody A VL-CL
- Minimum cell viability (%) [1]: 0.6%
- Minimum cell viability (%) [11]: 24.7%
- Minimum cell viability (%) [6]: 21.7%
- Minimum cell viability (%) [10]: 12.4%

- binding result [9]: binds
B5: Anti-HER3/MET bispecific antibody 5D5-A (bispecific antibody, human IgG1, kappa)
heavy 1: not shown
light 1: DIQMTQSPSSLSASVGDRVTITCKSSQSLLYTSSQKNYLAWYQQKPGKAPKLLIYWASTRESGVPSRFSGSGSGTDFTLTISSLQPEDFATYYCQQYYAYPWTFGQGTKVEIKGGGGSGIPPKIECLPIDISIDEGKVLTVASAFTGEPTPEVTWSTGGRKIHSQEQGRFHIENTDDSTTLTIKDVQKQDGGLYTLTLRNEFGSDSATVNIHIRSI
heavy 2: B6 heavy 2
light 2: B6 light 2
- Minimum cell viability (%) [10]: 20.5%
